These results are taken from patent publication US20060247420A1, “Immune cell recptor ligand and immune cell receptor” (priority 2002, published 2006).

The subject of experiment [1] is glucose transporter Glut-1 in peripheral CD8^+ T-cells. Description: Glut-1 expression in stimulated CD8+ T-cells, flow cytometry. The experiment is classed as cell-based, human. The settings on record: 20 hr stimulation. An excerpt: CD8^+ lymphocyte stimulation, cytokine release and glucose metabolism analysis. To analyze the effects of Letal on the T-cell proliferation and production of cytokines, a previously described artificial antigen-presenting cell (aAPC) model was used (Maus et al, Nat. Biotechnol. 20:143-148 (2002)). Briefly, the system is based on the stable expression of the human low-affinity Fcγ receptor, CD32, on K562 cells (K32 cell line). K32 cell-based aAPCs were additionally transduced with Letal or with the empty vector as described above, irradiated with 100Gy, and washed twice with RPMI medium. […] Cultures were pulsed with 1 μCi of [^3H] thymidine from day 2 to day 5 and incorporated radioactivity was determined using a 1450 Microbeta scintillation counter (Wallac, Turku, Finland). The amounts of secreted IL-2 and IFN-γ were determined by commercial ELISA, following the manufacturer's instructions (R & D Systems). […]
Letal signaling increases glucose transporter expression and glucose uptake during T-cell activation. […] To test whether Letal may have a similar effect during T-cell activation, peripheral CD8^+ T-cells were stimulated for 20 hr with anti-CD3, anti-CD3/anti-CD28, anti-CD3/Letal, or Letal alone and the expression of the glucose transporter Glut-1 was analyzed by flow cytometry. […]
On the technique in general: Flow cytometry measures light scatter and fluorescence of single cells or particles in a stream.

In experiment [2] the test system is SKOV3 chemoresistant ovarian carcinoma cells. Description: NK cell cytotoxicity against Letal+ or control SKOV3 cells, 51Cr release. The class given is cell-based, human. The settings on record: IL-15 activated NK cells; Letal^+ versus control SKOV3. How it is done: GPI-specific phospholipase-C treatment, ^51Cr release and apoptosis assay. Letal^+ and Letal^− A2780 cells were treated with 2 U/ml GPI-specific phospholipase-C (Sigma) at 37° C. for 1 hr. A standard ^51Cr-release assay was performed using 8,000 ^51Cr-labeled targets/well.
For analysis of the NK-dependent anti-tumor immune response, the cytotoxicity of NK cells against Letal^+ or control SKOV3 chemoresistant ovarian carcinoma cells was compared.

The subject of a further experiment is peripheral CD8^+ T-cells. In words: Cisplatin-induced apoptosis of pre-stimulated CD8+ lymphocytes, annexin-V. The experiment is classed as cell-based, human. The note with it: pre-stimulated 3 days; 50 μM cisplatin for 17 hr. On the procedure:
Apoptosis assay. The percentage of apoptotic cells was determined after 17 h incubation with 50 μM cisplatin or 18 hs exposure to 0.1 μg/ml anti-CD95 mAb (EOS9.1; Pharmingen) by using the TACS annexin-V apoptosis detection kit, according to the manufacturer's instructions (R & D Systems). Fas expression was determined by flow cytometry by using EOS9.1 as a primary Ab and a PE-labeled anti-mouse IgM (R6-60.2; Pharmingen) as a second Ab.
Cytotoxic chemotherapy can, however, deplete tumor-specific effector T-cells (Lee et al, Nat. Med. 5:677-685 (1999)). Because the glycolytic pathway is implicated in lymphocyte survival (Plas et al, Nat. Immunol. 3:515-521 (2002)), a determination was made as to whether Letal could protect T-cells from early apoptotic death induced by genotoxic drugs.

The target of experiment [3] is T1, NKG2D immunoreceptor (recombinant human NKG2D/Fc chimera) (Homo sapiens, UniProt P26718).
T1 construct: containing the ectodomain of the immunoreceptor (Phe78 through Val216); purchased R & D Systems
T1 sequence (P26718 78-216): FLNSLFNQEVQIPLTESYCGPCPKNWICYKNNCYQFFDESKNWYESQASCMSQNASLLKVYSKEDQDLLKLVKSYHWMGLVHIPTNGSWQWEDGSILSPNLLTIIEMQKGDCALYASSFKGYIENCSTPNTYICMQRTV
Description: Binding of recombinant soluble NKG2D-Fc to Letal-transduced cells, flow cytometry. The note with it: Letal^+ K562 and Letal^+ SKOV3 cells; 3 μg/ml NKG2D/Fc; anti-human IgG mAb. From the text: Constructs and generation of antibodies. SKOV3 and K562 cells were transduced using retroviral vector MIGR1, generously provided by Warren Pear (University of Pennsylvania). Letal or mock transductants expressing equivalent levels of the green fluorescent protein were sorted and cultured by standard procedures. […] Anti-human IgG mAb (G18-145; Pharmingen, San Diego, Calif.) was used to detect the chimerical molecule.
Letal is a ligand of NKG2D expressed in a variety of normal tissues. […] Expression of the Letal protein was confirmed on transduced cells, but not on mocked transductants, by flow cytometry using serum of Letal-immunized mice (FIG. 1D). […] To evaluate the binding of NKG2D to transduced Letal, a recombinant soluble NKG2D-Fc fusion protein was used, containing the ectodomain of the immunoreceptor (Phe78 through Val216). […] Treatment with phospholipase C decreased binding of sNKG2D to Letal^+ K562 cells, although binding was higher than to control cells.

B1: Letal: MHC-I related transmembrane ligand for the NKG2D receptor, polypeptide of SEQ ID NO:8; tested as expressed on transduced cells (protein)
chain: GGHSLCFNFTIKSLSRPGQPWCEAQVFLNKNLFLQYNSDNNMVKPLGLLGKKVYATSTWGELTQTLGEVGRDLRMLLCDIKPQIKTSDPSTLQVEMFCQREAERCTGASWQFATNGEKSLLFDAMNMTWTVINHEASKIKETWKKDRGLEKYFRKLSKGDCDHWLREFLGHWEAMPEPTVSPVNASDIHWSSSSLPDRWIILGAFILLVLMGIVLICVWWQNGEWQAGLWPLRTS
As to B1, the Glut-1 expression entry in experiment [1] is listed as “dramatic induction”. In addition, the “killing of SKOV3 cells by NK effectors” value in experiment [2] was “increased killing”. Besides, the apoptosis after cisplatin entry with peripheral CD8^+ T-cells was “markedly stronger protection”. In addition, the “staining by NKG2D-Fc compared with mock-transductants” value in experiment [3] is “markedly stronger staining”.
